The results in this text go back to patent US9259432.

In this experiment the target is S100B protein. In words: tryptophan fluorescence quenching, S100B titrated into 5.0 µM peptide, 0.1 mM CaCl2, 12° C.
Sequence of S100B protein (P02638 2-92): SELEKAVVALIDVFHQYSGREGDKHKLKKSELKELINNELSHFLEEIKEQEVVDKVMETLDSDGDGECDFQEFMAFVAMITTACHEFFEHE

The substance TRTK12 peptide showed a dissociation constant Kd of 211 nM.

A word on the Kd: it is the constant that tells how readily two partners part at equilibrium.
